Assay results as given in publication PMC8827656.
“And” between values parts separate entries of the source, which are not always exact repeats. Identical values can stand only once. Each block holds one substance with its values, some of them ahead of it.

Experiments:
[1] = target: photosystem I (PSI) complex from white-light-grown Synechococcus sp. PCC 7335 (Synechococcus sp. PCC 7335 (endogenous in the cells)); experiment: sucrose gradient sedimentation; thylakoid membranes solubilised with 1% DDM, 5-20% sucrose gradients with 0.05% DDM, 140,000g for 12-16 h at 4°C; bands assigned by position (fig. S3B), no TEM told
[2] = target: photosystem I (PSI) complex from white-light-grown Synechococcus sp. PCC 7335 (Synechococcus sp. PCC 7335 (endogenous in the cells)); experiment: atomic force microscopy; thylakoid membrane patches from 20-50% sucrose gradients with 0.1% digitonin, adsorbed on mica; PeakForce mode under liquid; 10 mM Hepes pH 7.5, 100 mM KCl; oligomer assigned from heights, nearest-neighbour angles and lateral distances
[3] = target: photosystem I (PSI) complex from white-light-grown Synechococcus sp. PCC 7335 (Synechococcus sp. PCC 7335 (endogenous in the cells)); experiment: as above; remark: listed apart in the source
[4] = target: photosystem II (PSII) complex from FRL-acclimated Chroococcidiopsis thermalis PCC 7203 (C. thermalis PCC 7203 (endogenous in the cells)); experiment: sucrose gradient sedimentation + negative-stain TEM; thylakoid membranes solubilised with 1% DDM, 5-20% sucrose gradients with 0.05% DDM, 140,000g for 12-16 h at 4°C; bands negatively stained with uranyl acetate and imaged by TEM
[5] = target: photosystem I (PSI) complex from white-light-grown Chroococcidiopsis thermalis PCC 7203 (C. thermalis PCC 7203 (endogenous in the cells)); experiment: native gel or EMSA; BN-PAGE; thylakoid membranes solubilised with 0.4 or 2% DDM, 4-16% NativePAGE gels
[6] = target: photosystem I (PSI) complex from white-light-grown Chroococcidiopsis thermalis PCC 7203 (C. thermalis PCC 7203 (endogenous in the cells)); experiment: atomic force microscopy; thylakoid membrane patches from 20-50% sucrose gradients with 0.1% digitonin, adsorbed on mica; PeakForce mode under liquid; 10 mM Hepes pH 7.5, 100 mM KCl; oligomer assigned from heights, nearest-neighbour angles and lateral distances
[7] = target: photosystem I (PSI) complex from FRL-acclimated Synechococcus sp. PCC 7335 (Synechococcus sp. PCC 7335 (endogenous in the cells)); experiment: sucrose gradient sedimentation; thylakoid membranes solubilised with 1% DDM, 5-20% sucrose gradients with 0.05% DDM, 140,000g for 12-16 h at 4°C; bands assigned by position (fig. S3B), no TEM told
[8] = target: photosystem I (PSI) complex from FRL-acclimated Synechococcus sp. PCC 7335 (Synechococcus sp. PCC 7335 (endogenous in the cells)); experiment: atomic force microscopy; thylakoid membrane patches from 20-50% sucrose gradients with 0.1% digitonin, adsorbed on mica; PeakForce mode under liquid; 10 mM Hepes pH 7.5, 100 mM KCl; oligomer assigned from heights, nearest-neighbour angles and lateral distances
[9] = target: photosystem I (PSI) complex from FRL-acclimated Chlorogloeopsis fritschii PCC 9212 (C. fritschii PCC 9212 (endogenous in the cells)); experiment: sucrose gradient sedimentation + negative-stain TEM; thylakoid membranes solubilised with 1% DDM, 5-20% sucrose gradients with 0.05% DDM, 140,000g for 12-16 h at 4°C; bands negatively stained with uranyl acetate and imaged by TEM
[10] = target: photosystem I (PSI) complex from FRL-acclimated Chlorogloeopsis fritschii PCC 9212 (C. fritschii PCC 9212 (endogenous in the cells)); experiment: atomic force microscopy; thylakoid membrane patches from 20-50% sucrose gradients with 0.1% digitonin, adsorbed on mica; PeakForce mode under liquid; 10 mM Hepes pH 7.5, 100 mM KCl; oligomer assigned from heights, nearest-neighbour angles and lateral distances
[11] = target: photosystem I (PSI) complex from FRL-acclimated Chroococcidiopsis thermalis PCC 7203 (C. thermalis PCC 7203 (endogenous in the cells)); experiment: native gel or EMSA; BN-PAGE; thylakoid membranes solubilised with 0.4 or 2% DDM, 4-16% NativePAGE gels
[12] = target: photosystem I (PSI) complex from FRL-acclimated Chroococcidiopsis thermalis PCC 7203 (C. thermalis PCC 7203 (endogenous in the cells)); experiment: sucrose gradient sedimentation + negative-stain TEM; thylakoid membranes solubilised with 1% DDM, 5-20% sucrose gradients with 0.05% DDM, 140,000g for 12-16 h at 4°C; bands negatively stained with uranyl acetate and imaged by TEM
[13] = target: photosystem I (PSI) complex from FRL-acclimated Chroococcidiopsis thermalis PCC 7203 (C. thermalis PCC 7203 (endogenous in the cells)); experiment: atomic force microscopy; thylakoid membrane patches from 20-50% sucrose gradients with 0.1% digitonin, adsorbed on mica; PeakForce mode under liquid; 10 mM Hepes pH 7.5, 100 mM KCl; oligomer assigned from heights, nearest-neighbour angles and lateral distances
[14] = target: photosystem I (PSI) complex from white-light-grown Chlorogloeopsis fritschii PCC 9212 (C. fritschii PCC 9212 (endogenous in the cells)); experiment: sucrose gradient sedimentation + negative-stain TEM; thylakoid membranes solubilised with 1% DDM, 5-20% sucrose gradients with 0.05% DDM, 140,000g for 12-16 h at 4°C; bands negatively stained with uranyl acetate and imaged by TEM
[15] = target: photosystem I (PSI) complex from white-light-grown Chlorogloeopsis fritschii PCC 9212 (C. fritschii PCC 9212 (endogenous in the cells)); experiment: atomic force microscopy; thylakoid membrane patches from 20-50% sucrose gradients with 0.1% digitonin, adsorbed on mica; PeakForce mode under liquid; 10 mM Hepes pH 7.5, 100 mM KCl; oligomer assigned from heights, nearest-neighbour angles and lateral distances

Substance: photosystem I (PSI) complex from FRL-acclimated Synechococcus sp. PCC 7335
stoichiometry N [7]: 3 and 2
stoichiometry N [8]: 3

Substance: photosystem I (PSI) complex from FRL-acclimated Chroococcidiopsis thermalis PCC 7203
stoichiometry N [11]: 3
stoichiometry N [12]: 3 and 2
stoichiometry N [13]: 3

Substance: photosystem I (PSI) complex from white-light-grown Chlorogloeopsis fritschii PCC 9212
stoichiometry N [14]: 4 and 2
stoichiometry N [15]: 2

Continued, values first:

stoichiometry N [1]: 2 and 3 and 4
stoichiometry N [2]: 2
stoichiometry N [3]: 3
Substance: photosystem I (PSI) complex from white-light-grown Synechococcus sp. PCC 7335

stoichiometry N [4]: 2
Substance: photosystem II (PSII) complex from FRL-acclimated Chroococcidiopsis thermalis PCC 7203

stoichiometry N [5]: 2
stoichiometry N [6]: 2
Substance: photosystem I (PSI) complex from white-light-grown Chroococcidiopsis thermalis PCC 7203

stoichiometry N [9]: 3
stoichiometry N [10]: 3
Substance: photosystem I (PSI) complex from FRL-acclimated Chlorogloeopsis fritschii PCC 9212
